Assay results from patent US20170072032A1.
Each block holds one substance with its values, some of them ahead of it.

How the values were obtained:
[1] = target: recombinant mouse FcRn, biotinylated, immobilized on sensor chip (mouse) (UniProt Q61559); assay: SPR (Biacore), immobilized biotinylated mouse FcRn, analyte 0.78-100 nM, pH 6.4; Chi2 3.9
[2] = target: recombinant mouse FcRn, biotinylated, immobilized on sensor chip (mouse) (UniProt Q61559); assay: SPR (Biacore), immobilized biotinylated mouse FcRn, analyte 0.78-100 nM, pH 5.4; Chi2 2.5
[3] = target: recombinant mouse FcRn, biotinylated, immobilized on sensor chip (mouse) (UniProt Q61559); assay: SPR (Biacore 2000), biotinylated mouse FcRn immobilized, analyte 0.78-200 nM, pH 5.4, 25 C, Langmuir fit with drifting baseline
[4] = target: recombinant human FcRn, biotinylated, immobilized on sensor chip (human) (UniProt P55899); assay: SPR (Biacore 2000), biotinylated human FcRn immobilized, analyte 0.78-200 nM, pH 5.4, 25 C, Langmuir fit with drifting baseline
[5] = target: recombinant mouse FcRn, biotinylated, immobilized on sensor chip (mouse) (UniProt Q61559); assay: SPR (Biacore), immobilized biotinylated mouse FcRn, analyte 0.78-100 nM, pH 6.4; Chi2 0.3
[6] = target: recombinant mouse FcRn, biotinylated, immobilized on sensor chip (mouse) (UniProt Q61559); assay: SPR (Biacore), immobilized biotinylated mouse FcRn, analyte 0.78-100 nM, pH 5.4; Chi2 10.1
[7] = target: neonatal Fc receptor (FcRn), endogenous mouse receptor in placenta / syncytiotrophoblast cells (mouse) (UniProt Q61559); assay: cell-based or functional assay

Kd [1]: 53 nM
koff [1]: 0.00347 s⁻¹
kon [1]: 65000 M⁻¹ s⁻¹
Kd [2]: 3.7 nM
koff [2]: 0.0011 s⁻¹
kon [2]: 292000 M⁻¹ s⁻¹
Substance: C2Fc (C2 domain of FVIII fused to mouse Fc gamma 1) (from UniProt P00451 2192-2351) (Fc fusion)

Kd [3]: 5.4 nM
koff [3]: 0.00159 s⁻¹
kon [3]: 292000 M⁻¹ s⁻¹
Kd [4]: 15.3 nM
koff [4]: 0.00318 s⁻¹
kon [4]: 208000 M⁻¹ s⁻¹
Substance: PPI2-Fc fusion protein (mouse preproinsulin 2 fused to the CH2-CH3 Fc domain of human IgG1) (from UniProt P01326 25-110)

Kd [5]: 52.9 nM
koff [5]: 0.0016 s⁻¹
kon [5]: 30000 M⁻¹ s⁻¹
Kd [6]: 8.53 nM
koff [6]: 0.00218 s⁻¹
kon [6]: 256000 M⁻¹ s⁻¹
Substance: A2Fc (A2 domain of FVIII fused to mouse Fc gamma 1) (from UniProt P00451 392-759) (Fc fusion)

Kd [3]: 1.5 nM
koff [3]: 0.00248 s⁻¹
kon [3]: 1.63e+06 M⁻¹ s⁻¹
diabetes-free offspring after IgG pre-treatment of pregnant mice 24 h before PPI-Fc (% diabetes-free mice) [7]: 49
Kd [4]: 6.4 nM
koff [4]: 0.00492 s⁻¹
kon [4]: 765000 M⁻¹ s⁻¹
Substance: anti-CD20 rituximab monoclonal antibody (Roche), used as human IgG1 control
